Results: paper PMC5994540

B1: GluN3A subunit: GluN3A-2/4N→Q (protein)
parent chain: MRRLSLWWLLSRVCLLLPPPCALVLAGVPSSSSHPQPCQILKRIGHAVRVGAVHLQPWTTAPRAASRAQEGGRAGAQRDDPESGTWRPPAPSQGARWLGSALHGRGPPGSRKLGEGAGAETLWPRDALLFAVENLNRVEGLLPYNLSLEVVMAIEAGLGDLPLMPFSSPSSPWSSDPFSFLQSVCHTVVVQGVSALLAFPQSQGEMMELDLVSSVLHIPVLSIVRHEFPRESQNPLHLQLSLENSLSSDADVTVSILTMNNWYNFSLLLCQEDWNITDFLLLTENNSKFHLESVINITANLSSTKDLLSFLQVQMDNIRNSTPTMVMFGCDMDSIRQIFEMSTQFGLSPPELHWVLGDSQNVEELRTEGLPLGLIAHGKTTQSVFEYYVQDAMELVARAVATATMIQPELALLPSTMNCMDVKTTNLTSGQYLSRFLANTTFRGLSGSIKVKGSTIISSENNFFIWNLQHDPMGKPMWTRLGSWQGGRIVMDSGIWPEQAQRHKTHFQHPNKLHLRVVTLIEHPFVFTREVDDEGLCPAGQLCLDPMTNDSSMLDRLFSSLHSSNDTVPIKFKKCCYGYCIDLLEQLAEDMNFDFDLYIVGDGKYGAWKNGHWTGLVGDLLSGTANMAVTSFSINTARSQVIDFTSPFFSTSLGILVRTRDTAAPIGAFMWPLHWTMWLGIFVALHITAIFLTLYEWKSPFGMTPKGRNRNKVFSFSSALNVCYALLFGRTAAIKPPKCWTGRFLMNLWAIFCMFCLSTYTANLAAVMVGEKIYEELSGIHDPKLHHPSQGFRFGTVRESSAEDYVRQSFPEMHEYMRRYNVPATPDGVQYLKNDPEKLDAFIMDKALLDYEVSIDADCKLLTVGKPFAIEGYGIGLPPNSPLTSNISELISQYKSHGFMDVLHDKWYKVVPCGKRSFAVTETLQMGIKHFSGLFVLLCIGFGLSILTTIGEHIVHRLLLPRIKNKSKLQYWLHTSQRFHRALNTSFVEEKQPRSKTKRVEKSRWRRWTCKTEGDSELSLFPRSNLGPQQLMVWNTSNLSHDNQRKYIFNDEEGQNQLGTQAHQDIPLPQRRRELPASLTTNGKADSLNVTRSSVIQELSELEKQIQVIRQELQLAVSRKTELEEYQKTNRTCES
B2: GluN3A subunit: N264Q (protein)
parent chain: MRRLSLWWLLSRVCLLLPPPCALVLAGVPSSSSHPQPCQILKRIGHAVRVGAVHLQPWTTAPRAASRAQEGGRAGAQRDDPESGTWRPPAPSQGARWLGSALHGRGPPGSRKLGEGAGAETLWPRDALLFAVENLNRVEGLLPYNLSLEVVMAIEAGLGDLPLMPFSSPSSPWSSDPFSFLQSVCHTVVVQGVSALLAFPQSQGEMMELDLVSSVLHIPVLSIVRHEFPRESQNPLHLQLSLENSLSSDADVTVSILTMNNWYNFSLLLCQEDWNITDFLLLTENNSKFHLESVINITANLSSTKDLLSFLQVQMDNIRNSTPTMVMFGCDMDSIRQIFEMSTQFGLSPPELHWVLGDSQNVEELRTEGLPLGLIAHGKTTQSVFEYYVQDAMELVARAVATATMIQPELALLPSTMNCMDVKTTNLTSGQYLSRFLANTTFRGLSGSIKVKGSTIISSENNFFIWNLQHDPMGKPMWTRLGSWQGGRIVMDSGIWPEQAQRHKTHFQHPNKLHLRVVTLIEHPFVFTREVDDEGLCPAGQLCLDPMTNDSSMLDRLFSSLHSSNDTVPIKFKKCCYGYCIDLLEQLAEDMNFDFDLYIVGDGKYGAWKNGHWTGLVGDLLSGTANMAVTSFSINTARSQVIDFTSPFFSTSLGILVRTRDTAAPIGAFMWPLHWTMWLGIFVALHITAIFLTLYEWKSPFGMTPKGRNRNKVFSFSSALNVCYALLFGRTAAIKPPKCWTGRFLMNLWAIFCMFCLSTYTANLAAVMVGEKIYEELSGIHDPKLHHPSQGFRFGTVRESSAEDYVRQSFPEMHEYMRRYNVPATPDGVQYLKNDPEKLDAFIMDKALLDYEVSIDADCKLLTVGKPFAIEGYGIGLPPNSPLTSNISELISQYKSHGFMDVLHDKWYKVVPCGKRSFAVTETLQMGIKHFSGLFVLLCIGFGLSILTTIGEHIVHRLLLPRIKNKSKLQYWLHTSQRFHRALNTSFVEEKQPRSKTKRVEKSRWRRWTCKTEGDSELSLFPRSNLGPQQLMVWNTSNLSHDNQRKYIFNDEEGQNQLGTQAHQDIPLPQRRRELPASLTTNGKADSLNVTRSSVIQELSELEKQIQVIRQELQLAVSRKTELEEYQKTNRTCES
B3: GluN3A subunit: N145Q (protein)
parent chain: MRRLSLWWLLSRVCLLLPPPCALVLAGVPSSSSHPQPCQILKRIGHAVRVGAVHLQPWTTAPRAASRAQEGGRAGAQRDDPESGTWRPPAPSQGARWLGSALHGRGPPGSRKLGEGAGAETLWPRDALLFAVENLNRVEGLLPYNLSLEVVMAIEAGLGDLPLMPFSSPSSPWSSDPFSFLQSVCHTVVVQGVSALLAFPQSQGEMMELDLVSSVLHIPVLSIVRHEFPRESQNPLHLQLSLENSLSSDADVTVSILTMNNWYNFSLLLCQEDWNITDFLLLTENNSKFHLESVINITANLSSTKDLLSFLQVQMDNIRNSTPTMVMFGCDMDSIRQIFEMSTQFGLSPPELHWVLGDSQNVEELRTEGLPLGLIAHGKTTQSVFEYYVQDAMELVARAVATATMIQPELALLPSTMNCMDVKTTNLTSGQYLSRFLANTTFRGLSGSIKVKGSTIISSENNFFIWNLQHDPMGKPMWTRLGSWQGGRIVMDSGIWPEQAQRHKTHFQHPNKLHLRVVTLIEHPFVFTREVDDEGLCPAGQLCLDPMTNDSSMLDRLFSSLHSSNDTVPIKFKKCCYGYCIDLLEQLAEDMNFDFDLYIVGDGKYGAWKNGHWTGLVGDLLSGTANMAVTSFSINTARSQVIDFTSPFFSTSLGILVRTRDTAAPIGAFMWPLHWTMWLGIFVALHITAIFLTLYEWKSPFGMTPKGRNRNKVFSFSSALNVCYALLFGRTAAIKPPKCWTGRFLMNLWAIFCMFCLSTYTANLAAVMVGEKIYEELSGIHDPKLHHPSQGFRFGTVRESSAEDYVRQSFPEMHEYMRRYNVPATPDGVQYLKNDPEKLDAFIMDKALLDYEVSIDADCKLLTVGKPFAIEGYGIGLPPNSPLTSNISELISQYKSHGFMDVLHDKWYKVVPCGKRSFAVTETLQMGIKHFSGLFVLLCIGFGLSILTTIGEHIVHRLLLPRIKNKSKLQYWLHTSQRFHRALNTSFVEEKQPRSKTKRVEKSRWRRWTCKTEGDSELSLFPRSNLGPQQLMVWNTSNLSHDNQRKYIFNDEEGQNQLGTQAHQDIPLPQRRRELPASLTTNGKADSLNVTRSSVIQELSELEKQIQVIRQELQLAVSRKTELEEYQKTNRTCES
B4: GluN3A subunit: GluN3A-3/4N→Q (protein)
parent chain: MRRLSLWWLLSRVCLLLPPPCALVLAGVPSSSSHPQPCQILKRIGHAVRVGAVHLQPWTTAPRAASRAQEGGRAGAQRDDPESGTWRPPAPSQGARWLGSALHGRGPPGSRKLGEGAGAETLWPRDALLFAVENLNRVEGLLPYNLSLEVVMAIEAGLGDLPLMPFSSPSSPWSSDPFSFLQSVCHTVVVQGVSALLAFPQSQGEMMELDLVSSVLHIPVLSIVRHEFPRESQNPLHLQLSLENSLSSDADVTVSILTMNNWYNFSLLLCQEDWNITDFLLLTENNSKFHLESVINITANLSSTKDLLSFLQVQMDNIRNSTPTMVMFGCDMDSIRQIFEMSTQFGLSPPELHWVLGDSQNVEELRTEGLPLGLIAHGKTTQSVFEYYVQDAMELVARAVATATMIQPELALLPSTMNCMDVKTTNLTSGQYLSRFLANTTFRGLSGSIKVKGSTIISSENNFFIWNLQHDPMGKPMWTRLGSWQGGRIVMDSGIWPEQAQRHKTHFQHPNKLHLRVVTLIEHPFVFTREVDDEGLCPAGQLCLDPMTNDSSMLDRLFSSLHSSNDTVPIKFKKCCYGYCIDLLEQLAEDMNFDFDLYIVGDGKYGAWKNGHWTGLVGDLLSGTANMAVTSFSINTARSQVIDFTSPFFSTSLGILVRTRDTAAPIGAFMWPLHWTMWLGIFVALHITAIFLTLYEWKSPFGMTPKGRNRNKVFSFSSALNVCYALLFGRTAAIKPPKCWTGRFLMNLWAIFCMFCLSTYTANLAAVMVGEKIYEELSGIHDPKLHHPSQGFRFGTVRESSAEDYVRQSFPEMHEYMRRYNVPATPDGVQYLKNDPEKLDAFIMDKALLDYEVSIDADCKLLTVGKPFAIEGYGIGLPPNSPLTSNISELISQYKSHGFMDVLHDKWYKVVPCGKRSFAVTETLQMGIKHFSGLFVLLCIGFGLSILTTIGEHIVHRLLLPRIKNKSKLQYWLHTSQRFHRALNTSFVEEKQPRSKTKRVEKSRWRRWTCKTEGDSELSLFPRSNLGPQQLMVWNTSNLSHDNQRKYIFNDEEGQNQLGTQAHQDIPLPQRRRELPASLTTNGKADSLNVTRSSVIQELSELEKQIQVIRQELQLAVSRKTELEEYQKTNRTCES
B5: GluN3A subunit: GluN3A-4/4N→Q (protein)
parent chain: MRRLSLWWLLSRVCLLLPPPCALVLAGVPSSSSHPQPCQILKRIGHAVRVGAVHLQPWTTAPRAASRAQEGGRAGAQRDDPESGTWRPPAPSQGARWLGSALHGRGPPGSRKLGEGAGAETLWPRDALLFAVENLNRVEGLLPYNLSLEVVMAIEAGLGDLPLMPFSSPSSPWSSDPFSFLQSVCHTVVVQGVSALLAFPQSQGEMMELDLVSSVLHIPVLSIVRHEFPRESQNPLHLQLSLENSLSSDADVTVSILTMNNWYNFSLLLCQEDWNITDFLLLTENNSKFHLESVINITANLSSTKDLLSFLQVQMDNIRNSTPTMVMFGCDMDSIRQIFEMSTQFGLSPPELHWVLGDSQNVEELRTEGLPLGLIAHGKTTQSVFEYYVQDAMELVARAVATATMIQPELALLPSTMNCMDVKTTNLTSGQYLSRFLANTTFRGLSGSIKVKGSTIISSENNFFIWNLQHDPMGKPMWTRLGSWQGGRIVMDSGIWPEQAQRHKTHFQHPNKLHLRVVTLIEHPFVFTREVDDEGLCPAGQLCLDPMTNDSSMLDRLFSSLHSSNDTVPIKFKKCCYGYCIDLLEQLAEDMNFDFDLYIVGDGKYGAWKNGHWTGLVGDLLSGTANMAVTSFSINTARSQVIDFTSPFFSTSLGILVRTRDTAAPIGAFMWPLHWTMWLGIFVALHITAIFLTLYEWKSPFGMTPKGRNRNKVFSFSSALNVCYALLFGRTAAIKPPKCWTGRFLMNLWAIFCMFCLSTYTANLAAVMVGEKIYEELSGIHDPKLHHPSQGFRFGTVRESSAEDYVRQSFPEMHEYMRRYNVPATPDGVQYLKNDPEKLDAFIMDKALLDYEVSIDADCKLLTVGKPFAIEGYGIGLPPNSPLTSNISELISQYKSHGFMDVLHDKWYKVVPCGKRSFAVTETLQMGIKHFSGLFVLLCIGFGLSILTTIGEHIVHRLLLPRIKNKSKLQYWLHTSQRFHRALNTSFVEEKQPRSKTKRVEKSRWRRWTCKTEGDSELSLFPRSNLGPQQLMVWNTSNLSHDNQRKYIFNDEEGQNQLGTQAHQDIPLPQRRRELPASLTTNGKADSLNVTRSSVIQELSELEKQIQVIRQELQLAVSRKTELEEYQKTNRTCES

Assay: surface/total immunofluorescence, COS-7, with GluN1-4a
Settings: glycan lost; control: wild-type GluN1/GluN3A

localisation_or_trafficking, no change:
B1
B2
B3
B4
B5
